Experimental data taken from US7572895B2, “Transferrin receptor antibodies” (Raven Biotechnologies, Inc., priority 2004, dated 2009).

What was measured:
HCT15 tumor xenograft = test: Established HCT15 tumor xenograft model; format: in vivo, mice; conditions: antibody 500 ug twice weekly for four weeks; gemcitabine 120 mg/kg q3d ×2
Experimental: For each experimental group, data is plotted until the first animal presents with a tumor greater than 1000 mm^3.
LUCA31 was particularly active in blocking the proliferation of the colon carcinoma cell line HCT15. […] In this study, groups of 15 mice were treated twice weekly with 500 ug of antibody for four weeks. Gemcitabine was dosed on a q3d ×2 schedule at 120 mg/kg, which is near the MTD. Treatment was initiated when tumor volumes averaged 70 mm^3. In FIG. 16A, the median tumor volumes are shown and in FIG. 16B, the mean tumor volumes with error bars are presented. In this experiment, the LUCA31 antibody produced a tumor growth delay of greater than 14 days, relative to the saline control. Gemcitabine produced a 20-day tumor growth delay and the combination of LUCA31 and gemcitabine produced a tumor growth delay of 18 days relative to gemcitabine alone.

[1] = target: human transferrin receptor, full length, on cells (human) (UniProt P02786); test: cell-based or functional assay
UniProt P02786, sequence (P02786 whole entry): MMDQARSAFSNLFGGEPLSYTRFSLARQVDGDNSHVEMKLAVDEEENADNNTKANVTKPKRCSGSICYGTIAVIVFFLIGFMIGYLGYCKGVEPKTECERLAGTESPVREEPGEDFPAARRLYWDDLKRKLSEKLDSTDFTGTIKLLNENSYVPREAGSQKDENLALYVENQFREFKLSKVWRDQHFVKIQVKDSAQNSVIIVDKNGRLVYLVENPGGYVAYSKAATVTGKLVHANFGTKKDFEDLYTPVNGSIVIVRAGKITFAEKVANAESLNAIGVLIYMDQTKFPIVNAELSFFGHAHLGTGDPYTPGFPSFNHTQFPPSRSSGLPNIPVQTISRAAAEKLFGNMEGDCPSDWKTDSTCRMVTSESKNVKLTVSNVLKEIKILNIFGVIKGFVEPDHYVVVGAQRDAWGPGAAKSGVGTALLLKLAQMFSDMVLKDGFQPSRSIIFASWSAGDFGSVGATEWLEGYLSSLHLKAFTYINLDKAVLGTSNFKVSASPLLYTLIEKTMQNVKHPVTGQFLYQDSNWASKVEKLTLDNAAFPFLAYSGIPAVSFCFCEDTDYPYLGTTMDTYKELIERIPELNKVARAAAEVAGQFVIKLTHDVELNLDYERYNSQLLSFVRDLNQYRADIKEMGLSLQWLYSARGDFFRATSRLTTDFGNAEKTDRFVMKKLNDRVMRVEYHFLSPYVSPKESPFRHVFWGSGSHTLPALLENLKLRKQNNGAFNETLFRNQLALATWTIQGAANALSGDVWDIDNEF

| Compound | tumor growth delay relative to the saline control (HCT15 tumor xenograft) [days] | Maximum inhibition (% inhibition) of cell proliferation, Calu6 cells [1] [%] | Maximum inhibition (% inhibition) of cell proliferation, Colo205 cells [1] [%] | Maximum inhibition (% inhibition) of cell proliferation, LS174T cells [1] [%] | Maximum inhibition (% inhibition) of cell proliferation, SW48 cells [1] [%] | growth inhibition (MTT), 786-O cells, LUCA31 at 20 ug/ml [1] [%] | growth inhibition (MTT), Colo205 cells, LUCA31 at 20 ug/ml [1] [%] | growth inhibition (MTT), MDA-MB-175VII cells, LUCA31 at 20 ug/ml [1] [%] | growth inhibition (MTT), SKMES-1 cells, LUCA31 at 20 ug/ml [1] [%] | maximum inhibition of cell proliferation (tritiated thymidine incorporation), Calu-6 cells [1] [%] |
| --- | --- | --- | --- | --- | --- | --- | --- | --- | --- | --- |
| Nc1ccn([C@@H]2O[C@H](CO)[C@@H](O)C2(F)F)c(=O)n1 [Gemcitabine, gemcitabine] | 20 | – | – | – | – | – | – | – | – | – |
| LUCA31 monoclonal antibody (mouse anti-human transferrin receptor antibody produced by hybridoma CA130.3.13C9.1A7, ATCC PTA-6055) | – | 25 | 25 | 35 | 35 | 54 | 37 | 35 | 45 | 45 |
| transferrin receptor antibody 42/6 | – | 0 | 25 | – | 0 | – | – | – | – | – |
